For one substance, GFP internalized per PPC-1 cell (cell lysate fluorescence) (GFP molecules per cell) and nanoshells internalized per PPC-1 cell (calculated from cell lysate fluorescence) (RPARPAR GFP-HGN per cell) results are on record in patent publication US20150343090A1.

The test has as its target neuropilin-1 (NRP-1) receptor on PPC-1 prostate cancer cells (human) (UniProt O14786). Description: cell-based or functional assay.
Sequence of UniProt O14786 (O14786 22-923): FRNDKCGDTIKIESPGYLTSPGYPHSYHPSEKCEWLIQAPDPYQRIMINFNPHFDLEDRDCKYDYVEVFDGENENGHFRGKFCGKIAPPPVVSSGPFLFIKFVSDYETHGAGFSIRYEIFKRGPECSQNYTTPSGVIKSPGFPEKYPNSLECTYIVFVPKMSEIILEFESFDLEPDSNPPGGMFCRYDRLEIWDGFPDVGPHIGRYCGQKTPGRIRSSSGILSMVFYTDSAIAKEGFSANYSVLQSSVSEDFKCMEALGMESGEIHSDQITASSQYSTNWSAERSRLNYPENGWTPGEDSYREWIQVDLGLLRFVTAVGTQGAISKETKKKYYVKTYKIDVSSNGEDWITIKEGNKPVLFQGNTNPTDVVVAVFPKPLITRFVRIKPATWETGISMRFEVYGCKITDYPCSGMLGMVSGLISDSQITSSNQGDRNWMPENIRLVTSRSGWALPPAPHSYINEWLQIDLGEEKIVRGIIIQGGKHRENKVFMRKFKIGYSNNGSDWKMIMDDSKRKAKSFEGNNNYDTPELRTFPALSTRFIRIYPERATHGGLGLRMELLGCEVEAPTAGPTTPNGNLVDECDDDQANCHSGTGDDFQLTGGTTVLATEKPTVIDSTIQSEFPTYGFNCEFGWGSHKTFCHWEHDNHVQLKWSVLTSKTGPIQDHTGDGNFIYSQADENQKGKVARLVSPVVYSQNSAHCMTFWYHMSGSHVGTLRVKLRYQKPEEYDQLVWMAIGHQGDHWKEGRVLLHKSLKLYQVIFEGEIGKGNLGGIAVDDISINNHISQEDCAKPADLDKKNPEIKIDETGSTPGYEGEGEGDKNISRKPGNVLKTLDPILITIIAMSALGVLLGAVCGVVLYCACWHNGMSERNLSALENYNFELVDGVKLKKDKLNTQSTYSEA

In the case of “His-tag-GFP-RPARPAR (RPARPAR-modified GFP fusion protein) loaded on NTA-Ni hollow gold nanoshells”, the GFP internalized per PPC-1 cell (cell lysate fluorescence) (GFP molecules per cell) came to 100000 and the nanoshells internalized per PPC-1 cell (calculated from cell lysate fluorescence) (RPARPAR GFP-HGN per cell) is 200.
